According to patent US20170369590A1 (Genmab, published 2017):

Key:
HER2ECDHis [1] = molecular target: T1, HER2ECDHis (human, UniProt P04626 23-653, biotinylated in the cross-block ELISA (sites not given)); experiment: ELISA; competitor 006
T1 construct: range 1-653; expressed in HEK-293F; also called soluble HER2; biotinylated HER2ECDHis

HER2ECDHis [2] = molecular target: T1, HER2ECDHis; experiment: ELISA; competitor C1
Description: (§1) Next, the ELISA wells were washed with PBST (PBS supplemented with 0.05% Tween-20 [Sigma-Aldrich, Zwijndrecht, The Netherlands]) and blocked for one hour at room temperature (RT) with PBSTC (PBST supplemented 2% [v/v] chicken serum [Gibco, Paisley, Scotland]). The ELISA wells were then washed with PBST and incubated for one hour at RT with HER2ECDHis serially diluted in PBSTC (0.25-2 μg/mL in 2-fold dilutions). […] The plate was thereafter washed with PBST and incubated for one hour with 0.1 μg/mL Streptavidin-poly-HRP (Sanquin, Amsterdam, The Netherlands) diluted in PBST. After washing, the reaction was visualized through a 15 minutes incubation with 2,2′-azino-bis (3-ethylbenzothiazoline-6-sulfonic acid) (ABTS: one ABTS tablet diluted in 50 mL ABTS buffer (Roche Diagnostics, Almere, The Netherlands)) at RT protected from light. The colorization was stopped by adding an equal volume of oxalic acid (Sigma-Aldrich, Zwijndrecht, The Netherlands). Fluorescence at 405 nm was measured on a microtiter plate reader (Biotek Instruments, Winooski, USA).
(§2) Each HER2 antibody was coated to the ELISA wells at the sub-optimal dose that was determined as described above. After blocking of the ELISA wells, the wells were incubated with the predetermined concentration of 1 μg/mL biotinylated HER2ECDHis in the presence or absence of an excess of a second (competitor) HER2 antibody. The ELISA was then performed as described above. […] Percentage competition was then determined as 100 minus the percentage of inhibition.

HER2ECDHis [3] = molecular target: T1, HER2ECDHis; experiment: ELISA; competitor 059
Description: as §1, §2

HER2ECDHis [4] = molecular target: T1, HER2ECDHis; experiment: ELISA; competitor Pert
Description: as §1, §2

HER2ECDHis [5] = molecular target: T1, HER2ECDHis; experiment: ELISA; competitor 060
Description: as §1, §2

[6] = molecular target: T2, human epidermal growth factor receptor 2 (HER2), membrane-bound on cells (human, UniProt P04626 23-1255); experiment: cell-based or functional assay
HER2ECDHis [7] = molecular target: T1, HER2ECDHis; experiment: ELISA; competitor 005
Description: as §1, §2

HER2ECDHis [8] = molecular target: T1, HER2ECDHis; experiment: ELISA; competitor Tras
Description: as §1, §2

HER2ECDHis [9] = molecular target: T1, HER2ECDHis; experiment: ELISA; competitor 111
Description: as §1, §2

HER2ECDHis [10] = molecular target: T1, HER2ECDHis; experiment: ELISA; competitor 106
Description: as §1, §2

[11] = molecular target: T2, human epidermal growth factor receptor …; experiment: cell-based or functional assay; remark: listed apart in the source
HER2ECDHis [12] = molecular target: T1, HER2ECDHis; experiment: ELISA; competitor F5
Description: as §1, §2

[13] = molecular target: T2, human epidermal growth factor receptor …; experiment: cell-based or functional assay; remark: listed apart in the source

| Binder | % binding vs no competitor (HER2ECDHis [1]) [%] | % binding vs no competitor (HER2ECDHis [2]) [%] | % binding vs no competitor (HER2ECDHis [3]) [%] | % binding vs no competitor (HER2ECDHis [4]) [%] | % binding vs no competitor (HER2ECDHis [5]) [%] | % cells killed, AU565, anti-kappa-ETA'-conjugated [6] [%] | EC50 of cell kill, AU565, anti-kappa-ETA'-conjugated [6] [µg/mL] | % binding vs no competitor (HER2ECDHis [7]) [%] | % binding vs no competitor (HER2ECDHis [8]) [%] | % binding vs no competitor (HER2ECDHis [9]) [%] | % binding vs no competitor (HER2ECDHis [10]) [%] | EC50, fab-CypHer5E internalization, AU565 [11] [µg/mL] | Maximal MFI, fab-CypHer5E internalization, AU565 [11] [MFI] | % binding vs no competitor (HER2ECDHis [12]) [%] | % cells killed, A431, anti-kappa-ETA'-conjugated [13] [%] | EC50 of cell kill, A431, anti-kappa-ETA'-conjugated [13] [µg/mL] |
| --- | --- | --- | --- | --- | --- | --- | --- | --- | --- | --- | --- | --- | --- | --- | --- | --- |
| HuMab 106 (antibody, V domains shown) VH: EVQLVQSGAEVKKPGESLKISCKGSGYSFTRYWIGWVRQMPGKGLEWMGIIYPGDSDTRYSPSFQGQVTISADKSISTAYLQWSSLKASDTAMYYCARLTGDRGFDYYSGMDVWGQGTTVTVSS VL: not shown | 25 | 471 | 25 | 275 | 23 | 59.1 | 0.108 | 25 | 323 | 21 | 26 | 0.0686 | 57400 | 495 |  |  |
| HuMab 059 (antibody, V domains shown, also called PC1014-059) VH: QVQLVQSGAEVKKPGASVRVPCKASGYTFTRYGISWVRQAPGQGLEWMGWISAYNGKTYYAQKLQGRVTMTTDTSTSTAYMELRSLRSDDTAVYYCARSPLLWFEELYFDYWGQGTLVTVSS VL: EIVLTQSPGTLSLSPGERATLSCRASQSVSSTYLAWYQQKPGQAPRLLIYGASSRATGIPDRFSGSGSGTDFTLTISRLEPEDFAVYYCQQYGTSLFTFGPGTKVDIK | 11 | 78 | 12 | 107 | 11 | 67 | 0.0677 | 13 | 117 | 12 | 23 | 0.0148 | 77100 | 128 |  |  |
| HuMab 060 (antibody, V domains shown, also called PC1014-060) VH: EVQLVQSGAEVKKPGESLKISCKGSGYRFTSYWIGWVRQMPGKGLEWMGSIYPGDSYTRNSPSFQGQVTISADKSIATAYLQWNSLKASDTAMYYCARHAGDFYYFDGLDVWGQGTTVTVSS VL: not shown | 6 | 108 | 14 | 99 | 19 | 64.3 | 0.0794 | 30 | 106 | 35 | 37 | 0.0362 | 68200 | 126 | 85 | ~0.01 |
| HuMab 111 (antibody, V domains shown) VH: QVQLVQSGAEVKKPGSSVKVSCKASGGTFSSYGISWVRQAPGPGLEWMGRIIPILGIANYAQKFQGRVTITADKSTNTAYMELSSLRSEDTAVYYCARDQEYSSNWYYWGQGTLVTVSS VL: not shown | 10 | 122 | 65 | 102 | 36 | 72 | 0.0242 | 51 | 110 | 14 | 75 | 0.0352 | 81700 | 119 |  |  |
| HuMab 005 (antibody, V domains shown, also called PC1014-005; TH1014-005) VH: EVQLVQSGAEVKKPGESLKISCKASGYSFHFYWIGWVRQMPGKGLEWMGSIYPGDSDTRYRPSFQGQVTISADKSISTAYLQWTSLKASDTAIYYCARQRGDYYYFYGMDVWGQGTTVTVSS VL: not shown | 15 | 157 | 22 | 115 | 12 | 69.7 | 0.0151 | 18 | 126 | 32 | 54 | 0.0214 | 95100 | 227 | 88.5 | ~0.0101 |
